From the Human Domainome abundance scans (Beltran et al. 2025)

B1: Zinc finger MYM-type protein 6, residues 427 to 504; numbered along this chain, O95789 (parent)
chain: KLKCQHCNHLFATKPELLFYKGKMFLFCGKNCSDEYKKKNKVVAMCDYCKLQKIIKETVRFSGVDKPFCSEVCKFLSA

Variants of: B1
Experiment: abundance fitness (aPCA) (normalised: wild type 0, dead -1); higher = more abundant; growth selection in yeast, the domain comes from the species named
Settings: Homo sapiens

Abundance fitness, by site and new letter:
K3: Y -0.132
C4: A -0.74, D -0.879, E -0.81, G -0.772, H -0.649, K -0.687, L -0.698, M -1.05, P -0.681, R -0.877, S -0.702, V -0.758, W -1.11
Q5: A -0.023, D -0.405, E -0.33, G -0.041, I -0.156, K -0.194, L -0.118, P -0.204, R -0.226, S -0.248, T -0.113, V -0.077, W -0.206, Y -0.057
H6: A -0.043, C -0.046, D -0.1, E 0.008, F -0.14, G -0.04, I -0.154, K -0.46, L -0.104, M 0.033, P -0.993, Q -0.098, R -0.03, S -0.085, T -0.079, V -0.074, W -0.102
C7: E -0.722, F -0.845, G -0.442, H -0.575, I -1.02, K -0.451, L -0.951, M -0.76, N -0.23, P -1.07, Q -0.887, S -0.823, T -0.792, V -1.11, W -0.919
N8: A 0.013, C -0.015, E 0.018, F -0.172, H -0.117, I -0.168, K 0.01, L -0.015, M -0.009, P -0.129, Q 0.044, R -0.02, S 0.042, T -0.067, V -0.088, W -0.154, Y -0.264
H9: A 0.005, C -0.085, E -0.028, F -0.153, G 0.014, K 0.034, M 0.022, N -0.011, P -0.69, Q 0.049, R 0.037, S -0.032, T 0.042, V 0.032, W -0.069, Y 0.015
L10: A 0.051, C -0.05, D -0.002, E 0.063, F 0.107, G 0.049, I -0.135, K 0.017, P 0.034, Q 0.023, R 0.063, S -0.066, T -0.085, V -0.002, W 0.004, Y -0.026
F11: C -0.098, D -0.339, G -0.171, H -0.354, I -0.25, K -0.13, L -0.129, M -0.134, P -0.049, R -0.198, S -0.094, T 0.014, V 0.031, W -0.207
A12: C -0.096, D -0.047, F -0.181, H -0.132, I 0.062, K 0.008, M -0.105, N -0.218, P -0.131, S -0.072, T -0.056, V -0.223, W -0.134, Y -0.205
T13: A -0.074, C -0.201, D -0.146, E -0.06, G -0.024, H -0.039, I 0.031, K -0.056, L -0.176, N -0.128, P -0.128, Q -0.093, R -0.087, S -0.148, V -0.098, W -0.162, Y -0.029
K14: C -0.243, D -0.081, E -0.053, F -0.298, L -0.101, M -0.287, N -0.1, P -0.182, Q -0.126, R -0.104, S -0.085, T -0.032, V -0.141
